# Experimental data taken from US20250320468A1, “New Microbial Diamine Oxidase Derived from Yarrowia Lipolytica for the Degradation of Biogenic Amines” (UNIVERSITÄT HOHENHEIM, priority 2021, published 2025).
# “Also recorded” adds a separate entry of the source. Read-outs that look alike come from different tables or passages of the source.
# T1: Yarrowia lipolytica PO1f diamine oxidase-1 (DAO-1), wild type, SEQ ID NO: 1 (Yarrowia lipolytica, UniProt Q6CGT2)
# T1 sequence (Q6CGT2 1-671): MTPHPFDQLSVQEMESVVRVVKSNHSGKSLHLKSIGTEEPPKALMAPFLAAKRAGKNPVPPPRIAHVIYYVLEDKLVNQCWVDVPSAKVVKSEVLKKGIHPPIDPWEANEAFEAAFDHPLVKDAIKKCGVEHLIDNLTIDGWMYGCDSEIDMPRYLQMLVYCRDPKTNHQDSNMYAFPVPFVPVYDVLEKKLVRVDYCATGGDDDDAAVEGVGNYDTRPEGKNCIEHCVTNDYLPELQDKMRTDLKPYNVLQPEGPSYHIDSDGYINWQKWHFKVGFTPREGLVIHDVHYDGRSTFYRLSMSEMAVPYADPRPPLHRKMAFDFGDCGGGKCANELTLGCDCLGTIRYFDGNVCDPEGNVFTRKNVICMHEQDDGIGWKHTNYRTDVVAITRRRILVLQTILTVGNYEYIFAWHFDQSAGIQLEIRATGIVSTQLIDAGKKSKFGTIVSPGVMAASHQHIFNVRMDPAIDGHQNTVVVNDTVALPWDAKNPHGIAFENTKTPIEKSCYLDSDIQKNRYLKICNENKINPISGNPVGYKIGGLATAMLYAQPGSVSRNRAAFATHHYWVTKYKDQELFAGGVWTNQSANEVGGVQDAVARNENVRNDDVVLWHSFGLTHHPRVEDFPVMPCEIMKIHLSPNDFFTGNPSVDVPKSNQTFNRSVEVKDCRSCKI
# Legend:
# [1] = test system: porcine kidney diamine oxidase (DAO); details: cited from earlier work
# [2] = test system: Aspergillus niger amine oxidase; details: cited from earlier work
# [3] = test system: human diamine oxidase (DAO); details: cited from earlier work
# [4] = biological target: T1, Yarrowia lipolytica PO1f diamine oxidase-1 (DAO-1), wild type, SEQ ID NO: 1
# Protocol: DAO-1 activity was determined with the DA-67 assay.
# The DAO-1 activity was determined using a colorimetric DA-67 enzyme assay. […] Subsequently, 12 μL (266 units/mL) of horseradish peroxidase (Grade I) were added. The reaction was started by the addition of 25 μL DAO solution and incubated at 37° C. for 10 min and stirred at 750 rpm. The reaction was stopped by the addition of 50 μL sodium diethyldithiocarbamate (30 mM). After centrifugation (10,000 g for 3 min at 20° C.), the absorption was measured at 668 nm. […] Hydrogen peroxide (0.5 to 10 nmol/mL) was used for the calibration. The enzyme activity was calculated in nkat, whereby 1 nkat converts 1 nmol substrate/s at 37° C.
# The DAO-1 activity was determined using the DA-67 assay. For unhydrolyzed conditions, the DA-67 reagent (50 μM) was prepared in SIF containing BSA, WPI, sodium-caseinate each at 35.6 g/L and 106.8 g/L sucrose (pH 6.8). […] The DAO-1 was desalted against SIF using PD MidiTrap G-25 columns.
# For the hydrolyzed conditions, BSA, WPI, sodium-caseinate each at 16.67 g/L and 50 g/L sucrose were first incubated in SIF (with pancreatin) at 37° C. and 130 rpm for 90 min. […]
# All experiments were done at least in duplicate and evaluated by determining the standard deviation with Excel. […] Enzyme kinetics were evaluated by nonlinear regression using the data analyzing software Sigmaplot 12.5 (Systat Software GmbH, Erkrath, Germany).
# [5] = test system: Arthrobacter crystallopoietes KAIT-B-007 histamine oxidase; details: cited from earlier work
# [6] = biological target: T1, Yarrowia lipolytica PO1f diamine oxidase-1 (DAO-1), wild type, SEQ ID NO: 1; test: Michaelis-Menten kinetics of DAO-1 with histamine, DA-67 assay in PIPES buffer; assay type: biochemical; details: PIPES buffer (25 mM; pH 7.2), 37° C.
# Protocol: DAO-1 activity determined with the DA-67 assay in PIPES buffer (25 mM; pH 7.2) at 37° C.
# The DAO activity was determined using the colorimetric DA-67 enzyme assay, as known in the art. […] Subsequently, 24 μL (266 units/mL) of horseradish peroxidase (Grade I) were added. The reaction was started by the addition of 50 μL enzyme solution and incubated at 37° C. for 10 min and stirred at 750 rpm. The reaction was stopped by the addition of 50 μL sodium diethyldithiocarbamate (30 mM). After centrifugation (10,000 g for 3 min at 20° C.), the absorption was measured at 668 nm. […] Hydrogen peroxide (0.5 to 10 nmol/mL) was used for the calibration. The enzyme activity was calculated in nkat, whereby 1 nkat converts 1 nmol substrate/s at 37° C.
# Kinetic investigations were done within the initial reaction velocity.
# Data are presented as mean values with standard deviation. Enzyme kinetics were evaluated by nonlinear regression using the data analyzing software Sigmaplot 12.5 (Systat Software GmbH, Erkrath, Germany).
# [7] = extracted and partially purified from pig kidney (heat treatment, salt precipitation, HIC), cited from earlier work
# [8] = cited from earlier work; for in vitro reduction of histamine: 150 mg/L (75 mg) histamine, 50 nkat (0.1 nkat/mL), 5 h
# [9] = simulated intestinal fluid; cited from earlier work
# [10] = cited from earlier work
# [11] = kinetic studies from the art; cited from earlier work
# [12] = substrates at 1 mM; cited from earlier work
# [13] = DAO activity of Y. lipolytica PO1f_axp_dao-2 cell extract versus wildtype extract; assay type: biochemical
# Protocol: (§1) The DAO activity was determined using the colorimetric DA-67 enzyme assay, as known in the art.
# (§2) Y. lipolytica PO1f was identified as the owner of two putative DAOs using the BLAST program (https://blast.ncbi.nlm.nih.gov). […] Both genes were amplified from the genome of the Y. lipolytica strain PO1f and successfully integrated into the axp locus of the genome (integration efficiency of around 20%), resulting in the recombinant strains Y. lipolytica PO1f_axp_dao-1 and Y. lipolytica PO1f_axp_dao-2. The genes were integrated into the axp locus because it allowed efficient expression of the proteins desired with the chosen strategy for homologous recombinant integration, as known in the art. Gene expression was thereby conducted using the strong, constitutive promoter UAS1B8_TEF (136).
# [14] = DAO activity of Y. lipolytica PO1f_axp_dao-2 cell extract versus wildtype extract, agmatine; assay type: biochemical
# Protocol: as §1, §2
# [15] = read-out: Ki (substrate inhibition by histamine)
molecule,measurement,setting,value
NCCc1c[nH]cn1 [histamine],Km,[1],27 µM
same,substrate inhibition by histamine concentrations,"[1]; porcine kidney DAO, 56 mg/L (0.5 mM)",> 0.5 mM
same,Ki,[1]; [15],5710 µM
same,Km,[2],600 µM
same,Km,[3],2.8 µM
same,Ki,[3]; [15],280 µM
same,substrate inhibition recognized for histamine concentrations,[4]; hydrolyzed food-matrix SIF 3,greater than 12.5 mM
same,substrate inhibition recognized for histamine concentrations,[4]; unhydrolyzed food-matrix SIF 3,greater than 12.5 mM
same,Km,[5],500 µM
same,substrate inhibition recognized for histamine concentrations,[6],greater than 12.5 mM
"porcine DAO: DAO extracted from porcine kidney (Uniprot: Q9TRC7), prior-art comparator (protein, UniProt Q9TRC7 25-755, looked up) Diamine oxidase …: ERSPRTPGGKAGVFADLSAQELKAVHSFLWSQKELKLEPSGTLTMAKNSVFLIEMLLPKKQHVLKFLDKGHRRPVREARAVIFFGAQEQPNVTEFAVGPLPTPRYMRDLPPRPGHQVSWASRPISKAEYALLSHKLQEATQPLRQFFRRTTGSSFGDCHEQCLTFTDVAPRGLASGQRRTWFILQRQMPGYFLHPTGLELLVDHGSTNAQDWTVEQVWYNGKFYRSPEELAQKYNDGEVDVVILEDPLAKGKDGESLPEPALFSFYQPRGDFAVTMHGPHVVQPQGPRYSLEGNRVMYGGWSFAFRLRSSSGLQILDVHFGGERIAYEVSVQEAVALYGGHTPAGMQTKYIDVGWGLGSVTHELAPDIDCPETATFLDALHHYDADGPVLYPRALCLFEMPTGVPLRRHFNSNFSGGFNFYAGLKGQVLVLRTTSTVYNYDYIWDFIFYPNGVMEAKMHATGYVHATFYTPEGLRYGTRLHTHLIGNMHTHLVNYRVDLDVAGTTNSFQTLQMELENITNPWSPRHRLVQPTLKQTRYSRERQAAFRFGQPLPKYLLITSPKENPWGHTRSYRLQLHSMADQVLPPGWQEERAVTWARYPLAVTRYRESELSSSSIYNQNDPWDPPVVFEEFLRNNENIEDEDLVAWVTVGFLHIPHSEDIPNTATPGNSVGFLLRPFNFFPEDPALASRDLVVVWPLENGSTYAQRWIPEEDQSCLKPPPFSYNGSYRPV",specific DAO activity,[7],81 nkat/gProtein
same,specific DAO activity,[7]; listed as DAO from porcine kidney,81±1 nkat/gProtein
same,in vitro reduction of histamine,[8],Around 90%
same,in vitro reduction of histamine,[8]; listed as free porcine DAO,about 90%
same,DAO activity required for the degradation of food-relevant histamine (75 mg),"[8]; within 5 h under in vitro conditions, about 90% reduction",50 nkat
same,half-life,[9],approximately 19 minutes
same,pH of maximal DAO activity,"[10]; cadaverine as substrate, potassium phosphate buffer",7.4
same,pH of maximal DAO activity,"[10]; histamine as substrate, potassium phosphate buffer",6.3
same,histamine concentration above which substrate inhibition occurs,[11],greater than 56 mg/L
same,DAO activity with histamine compared to the maximal measured activity with putrescine,[12],19%
"DAO-2: second putative DAO from Y. lipolytica PO1f (Uniprot: A0A371BXN9), gene dao-2 SEQ ID NO: 3 (protein, listed as Yarrowia lipolytica) MHRLSQLATQTTAATITAGHPLDPLSPSEIEHAASIVKSQMRDSSPYRFNLITLIEPPKAELLAWEASPSSVAKPPRRAEVVLVVRGKKGVTEGRVCLTGSKVLSWSEIEGVQPILTVDDLQKVEEIVRQDPEVIKQCKLIGVDNMSQVYCDPWTIGYDERWGAERRLQQAFLYFRAHQDDSQYSHPLDFTPIYDATEQKVIFIDIPPVRRPLSKLKNSNFNPQDISKTTGYRDVKPIDVSQPEGVNFKMTGRIMEWQGFRFHVGFNYREGIVLSQISFNDHGNQRNMFHRLSLVEMVVPYGNPEHPHQRKHAFDLGEYGAGLMTNPLSLGCDCKGVIHYLDAHFSDAEGKPLTVPNAVCIHEEDNGLLFKHSDFRDEFQTSIVTRATKLILSQIFTAANYEYCVYWIFHQDGTIQLEIKLTGILNTFPCNPGEDLHGWGTEVYPGTNAHNHQHLFSLRIHPAIDSQLHPGNSVAMVDAERSPFPPGHPENLHGNGFRPKRTVFNNPIEAMTDYDGNTSRTWDFFNPKSINQYSKKPASYKLVSRECPPLLPQPGGLVWNRAGFARHHMHVVPYVDGQLYPAGRFVCQTSGKPSRGLPEWIEQCGEKANINDTDVVAYHTFGLTHFPAPEDFPLMPAEPMTLLLRPRNFFLQNPALDVPPSHARTTTEAQAASGAKVVSLTDKVSQLAFNKSCCSK",enzyme activity towards histamine,[13]; recombinant Y. lipolytica PO1f_axp_dao-2 extract,no activity; also recorded: did not show enzyme activity
same,increase in DAO-activity versus wildtype cell extract,"[13]; substrates histamine, putrescine, cadaverine, tyramine, spermidine, tryptamine",did not show an increase
same,activity with agmatine,"[14]; cell extract, shaking flask",around 50 nkatAgmatine (14.5 mM)/LCulture
same,increase in activity versus wildtype cell extract,[14]; substrate agmatine,5.5 fold
"human DAO: human diamine oxidase (Uniprot: P19801), prior-art comparator (protein, UniProt P19801 20-751, looked up) Diamine oxidase …: EPSPGTLPRKAGVFSDLSNQELKAVHSFLWSKKELRLQPSSTTTMAKNTVFLIEMLLPKKYHVLRFLDKGERHPVREARAVIFFGDQEHPNVTEFAVGPLPGPCYMRALSPRPGYQSSWASRPISTAEYALLYHTLQEATKPLHQFFLNTTGFSFQDCHDRCLAFTDVAPRGVASGQRRSWLIIQRYVEGYFLHPTGLELLVDHGSTDAGHWAVEQVWYNGKFYGSPEELARKYADGEVDVVVLEDPLPGGKGHDSTEEPPLFSSHKPRGDFPSPIHVSGPRLVQPHGPRFRLEGNAVLYGGWSFAFRLRSSSGLQVLNVHFGGERIAYEVSVQEAVALYGGHTPAGMQTKYLDVGWGLGSVTHELAPGIDCPETATFLDTFHYYDADDPVHYPRALCLFEMPTGVPLRRHFNSNFKGGFNFYAGLKGQVLVLRTTSTVYNYDYIWDFIFYPNGVMEAKMHATGYVHATFYTPEGLRHGTRLHTHLIGNIHTHLVHYRVDLDVAGTKNSFQTLQMKLENITNPWSPRHRVVQPTLEQTQYSWERQAAFRFKRKLPKYLLFTSPQENPWGHKRTYRLQIHSMADQVLPPGWQEEQAITWARYPLAVTKYRESELCSSSIYHQNDPWHPPVVFEQFLHNNENIENEDLVAWVTVGFLHIPHSEDIPNTATPGNSVGFLLRPFNFFPEDPSLASRDTVIVWPRDNGPNYVQRWIPEDRDCSMPPPFSYNGTYRPV",pH of maximal DAO activity,"[10]; putrescine as substrate, phosphate buffer, DAO from blood serum",7.5
